B1: hTRPV1^GFP (natural protein, human, UniProt Q8NER1-1 1-839, looked up)
chain: MKKWSSTDLGAAADPLQKDTCPDPLDGDPNSRPPPAKPQLSTAKSRTRLFGKGDSEEAFPVDCPHEEGELDSCPTITVSPVITIQRPGDGPTGARLLSQDSVAASTEKTLRLYDRRSIFEAVAQNNCQDLESLLLFLQKSKKHLTDNEFKDPETGKTCLLKAMLNLHDGQNTTIPLLLEIARQTDSLKELVNASYTDSYYKGQTALHIAIERRNMALVTLLVENGADVQAAAHGDFFKKTKGRPGFYFGELPLSLAACTNQLGIVKFLLQNSWQTADISARDSVGNTVLHALVEVADNTADNTKFVTSMYNEILMLGAKLHPTLKLEELTNKKGMTPLALAAGTGKIGVLAYILQREIQEPECRHLSRKFTEWAYGPVHSSLYDLSCIDTCEKNSVLEVIAYSSSETPNRHDMLLVEPLNRLLQDKWDRFVKRIFYFNFLVYCLYMIIFTMAAYYRPVDGLPPFKMEKTGDYFRVTGEILSVLGGVYFFFRGIQYFLQRRPSMKTLFVDSYSEMLFFLQSLFMLATVVLYFSHLKEYVASMVFSLALGWTNMLYYTRGFQQMGIYAVMIEKMILRDLCRFMFVYIVFLFGFSTAVVTLIEDGKNDSLPSESTSHRWRGPACRPPDSSYNSLYSTCLELFKFTIGMGDLEFTENYDFKAVFIILLLAYVILTYILLLNMLIALMGETVNKIAQESKNIWKLQRAITILDTEKSFLKCMRKAFRSGKLLQVGYTPDGKDDYRWCFRVDEVNWTTWNTNVGIINEDPGNCEGVKRTLSFSLRSSRVSGRHWKNFALVPLLREASARDRQSAQPEEVYLRQFSGSLKPEDAEVFKSPAASGEK
notes: human TRPV1, transcript variant 3, subcloned from pDONR201 into pNKS2; Used as mass marker on the native gel; calculated mass of the GFP-tagged protomer printed as 123 kDa; also called human TRPV1 (transient receptor potential cation channel subfamily V member 1); source: X. laevis oocytes, cRNA injected, in digitonin extract (cleared supernatant); not shown: GFP, C-terminal, kept
B2: hNav1.7^GFP (natural protein)
chain: not shown
notes: numbers count on: isoform 3; pCMV6-neo-hNav1.7, Klugbauer et al. 1995; also called hNav1.7/WT; source: X. laevis oocytes, cRNA injected, in detergent extract (cleared supernatant); not shown: GFP, C-terminal, kept

Target: the molecule itself
Experiment: native gel or EMSA; hrCN-PAGE of digitonin extracts of cRNA-injected X. laevis oocytes (0.1 M sodium phosphate pH 8.0, 1 mM TCEP), non-denaturing conditions; GFP tags visualised by fluorescence scanning; masses judged against hTrpV1-GFP

Row | Protein | stoichiometry N
1 | B1 | 4
2 | B2 | 2
